Experimental findings from article PMC3507621, “Implication of the oligomeric state of the N-terminal PTX3 domain in cumulus matrix assembly” (Matrix Biology, 2011) are described below.

Sequences and labels used below:
B1: mouse TSG-6 (tumor necrosis factor-induced protein 6) (natural protein, UniProt O08859 18-275, looked up)
chain: WGFKNGIFHNSIWLEQAAGVYHREARAGRYKLTYAEAKAVCEFEGGRLATYKQLEAARKIGFHVCAAGWMAKGRVGYPIVKPGPNCGFGKTGIIDYGIRLNRSERWDAYCYNPHAKECGGVFTDPKRIFKSPGFPNEYDDNQVCYWHIRLKYGQRIHLSFLDFDLEHDPGCLADYVEIYDSYDDVHGFVGRYCGDELPEDIISTGNVMTLKFLSDASVTAGGFQIKYVTVDPASKSSQAKNTSTTGNKKFLPGRFSHL
notes: TSG-6 (tumor necrosis factor-induced protein 6), mouse; source: bought: R&D
B2: wild type recombinant N-terminal region of PTX3 (N_PTX3) (domain or fragment, human)
chain: ENSDDYDLMYVNLDNEIDNGLHPTEDPTPCACGQEHSEWDKLFIMLENSQMRERMLLQATDDVLRGELQRLREELGRLAESLARPCAPGAPAEARLTSALDELLQATRDAGRRLARMEGAEAQRPEEAGRALAAVLEELRQTRADLHAVQGWATG
notes: Pentraxin 3 (PTX3), human, residues 18-170 of the PTX3 preprotein; two non-authentic amino acids (Thr-Gly) before the C-terminal His tag; Organised into tetramers by SEC and native gel; The 5' primer begins at the ATG of the preprotein, so the signal peptide was probably encoded and cut off on secretion (surmise); also called WT; source: HEK-293 F, stably transfected, purified from culture …
B3: N_PTX3C47S/C49S/C103S (domain or fragment, human)
chain: B2 chain with C30S, C32S, C86S
notes: Pentraxin 3 (PTX3), human, residues 18-170 of the PTX3 preprotein, with C47S, C49S and C103S; two non-authentic amino acids (Thr-Gly) before the C-terminal His tag; Composed entirely of non-covalent dimers; also called triple mutant; C47/C49/C103; source: HEK-293 F, stably transfected, purified from culture supernatant (HisTrap, desalting)
B4: N_PTX3C47S/C49S (domain or fragment, human)
chain: B2 chain with C30S, C32S
notes: Pentraxin 3 (PTX3), human, residues 18-170 of the PTX3 preprotein, with C47S and C49S; two non-authentic amino acids (Thr-Gly) before the C-terminal His tag; Mixture of tetramers and dimers, more dimers than tetramers; also called double mutant; C47/C49; source: HEK-293 F, stably transfected, purified from culture supernatant (HisTrap, desalting)
B5: N_PTX3C103S (domain or fragment, human)
chain: B2 chain with C86S
notes: Pentraxin 3 (PTX3), human, residues 18-170 of the PTX3 preprotein, with C103S; two non-authentic amino acids (Thr-Gly) before the C-terminal His tag; Mixture of tetramers and dimers, more tetramers than dimers; also called single mutant; source: HEK-293 F, stably transfected, purified from culture supernatant (HisTrap, desalting)

Series [1] deals with T1, biotinylated recombinant full length PTX3 (human, UniProt P26022 18-381, biotin).
T1 construct: Pentraxin 3 (PTX3), human recombinant wild type, full length; As a secreted protein it probably lacks the signal peptide (residues 1-17; surmise); also called bPTX3; biotinylated PTX3
Nature of the series: ELISA; competition: wells coated with 500 ng of IαI or TSG-6; 50 ng/well biotinylated PTX3 with or without unlabeled N_PTX3 or triple mutant, 1 h at 37 °C; HRP-streptavidin. Particulars: both partners purified. A general note: ELISA stands for enzyme-linked immunosorbent assay.

For series [2], the target named is B1. The experiment in a line: ELISA; N_PTX3 proteins coated on wells (10 μg/ml); IαI or TSG-6 added in PBS with Ca2+ and Mg2+, 0.05% Tween-20, 1% BSA, pH 7.4, 2 h at 37 °C; detected with polyclonal anti-IαI or anti-TSG-6. Particulars: both partners purified.
Series [3] deals with the molecule itself. The experiment in a line: SEC + native gel or EMSA; Superose 6 in 20 mM sodium phosphate, 150 mM NaCl, pH 7.4; native 4-20% polyacrylamide gel without SDS; oligomeric state of purified N_PTX3 proteins. On the technique in general: Mobility shift assays separate free from complexed probe on a gel.

Changes are numbered by the printed parent chain. In names and notes the source's numbering stands. Several values for one entry are separate records, joined by “and”; a condition that tells them apart may be missing. Equal values may be shown once.

For the molecule B1, the binding result in series [1] is reported as “binds”.

For orientation: stoichiometry N means the number of molecules, sites or subunits per partner or assembly. In the case of B2, in series [2], the binding result is reported as “binds”. The “stoichiometry N” value in series [3] came to 4. In the case of B3, in series [2], the binding result was “binds”. Further, the “stoichiometry N” value in series [3] came to 2. As to B4, the binding result in series [2] was “binds”. The “stoichiometry N” value in series [3] is 4 and 2. Consider B5, for which the binding result in series [2] was “binds”. The “stoichiometry N” value in series [3] was 4 and 2.
